Assay results taken from publication PMC4736438, “Cation–π Interactions Contribute to Substrate Recognition in γ‐Butyrobetaine Hydroxylase Catalysis” (Chemistry (Weinheim an Der Bergstrasse, Germany), 2015).

Assays:
[1] = molecular target: T1, psBBOX (Pseudomonas sp. AK-1, UniProt P80193); test: 1H NMR (CPMG) protein titration; assay type: binding
T1 construct: recombinant, purified on HisTrap and Superdex S200; metal-free buffer
T1 sequence (P80193 1-383): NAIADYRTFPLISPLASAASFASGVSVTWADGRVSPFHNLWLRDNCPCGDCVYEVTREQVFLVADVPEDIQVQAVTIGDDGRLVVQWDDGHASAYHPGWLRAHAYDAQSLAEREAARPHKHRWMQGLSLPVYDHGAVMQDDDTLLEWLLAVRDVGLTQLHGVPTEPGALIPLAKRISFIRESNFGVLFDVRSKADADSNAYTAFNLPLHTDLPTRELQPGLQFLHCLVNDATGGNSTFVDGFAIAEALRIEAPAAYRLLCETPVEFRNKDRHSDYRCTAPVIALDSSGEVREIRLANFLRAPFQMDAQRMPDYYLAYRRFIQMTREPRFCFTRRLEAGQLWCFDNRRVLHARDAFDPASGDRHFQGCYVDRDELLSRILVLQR

[2] = substrate: C[N+](C)(C)CCCC(=O)[O-]; test: LC-MS hydroxylation kinetics; assay type: biochemical, Pseudomonas sp. AK-1; details: […] psBBOX, […] FeSO4, […] 2OG, […] ascorbate, Tris pH […] K
Description: LC-MS hydroxylation kinetics on psBBOX

C[N+](C)(C)CCCC(=O)[O-] [compound 1, γBB]
Kd [1]: 5 µM

B1: psBBOX (Pseudomonas sp. AK-1) (protein)
chain: NAIADYRTFPLISPLASAASFASGVSVTWADGRVSPFHNLWLRDNCPCGDCVYEVTREQVFLVADVPEDIQVQAVTIGDDGRLVVQWDDGHASAYHPGWLRAHAYDAQSLAEREAARPHKHRWMQGLSLPVYDHGAVMQDDDTLLEWLLAVRDVGLTQLHGVPTEPGALIPLAKRISFIRESNFGVLFDVRSKADADSNAYTAFNLPLHTDLPTRELQPGLQFLHCLVNDATGGNSTFVDGFAIAEALRIEAPAAYRLLCETPVEFRNKDRHSDYRCTAPVIALDSSGEVREIRLANFLRAPFQMDAQRMPDYYLAYRRFIQMTREPRFCFTRRLEAGQLWCFDNRRVLHARDAFDPASGDRHFQGCYVDRDELLSRILVLQR
notes: recombinant, purified on HisTrap and Superdex S200; metal-free buffer
Km [2]: 1000 ± 210 µM
Vmax [2]: 169 µM/min
kcat [2]: 7.02 ± 0.77 s⁻¹
